Test results published in article PMC9452303.
pKd: −log10 of the molar value.

Legend:
[1] = molecular target: CsuA/B Val2Ala (in Csu pili) (Acinetobacter baumannii); experiment: optical tweezers force spectroscopy; single pili on E. coli cells mounted on a bead, polystyrene probe bead; extension at a constant speed of 50 nm/s; force of region II (clinch opening)
[2] = molecular target: CsuA/B Arg104Cys (in Csu pili) (Acinetobacter baumannii); experiment: as above
[3] = molecular target: CsuA/B, major subunit of the Csu pilus rod (wild type, in Csu pili) (Acinetobacter baumannii); experiment: as above
[4] = molecular target: CsuA/B (wild type, co-expressed with the CsuC chaperone) (Acinetobacter baumannii); experiment: pull-down
[5] = molecular target: FimD (Escherichia coli) (UniProt P30130); conditions: cited from earlier work
[6] = molecular target: FimD NTD (Escherichia coli) (UniProt P30130); conditions: cited from earlier work

Question: Which clinch opening force [1] does the source give for “CsuA/B Val2Ala (in Csu pili) (natural protein)” here?
Answer: 15 pN

Question: Which clinch opening force [2] does the source give for “CsuA/B Arg104Cys (in Csu pili) (natural protein)” here?
Answer: 19.8 pN

Question: With “CsuA/B, major subunit of the Csu pilus rod (wild type, in Csu pili) (natural protein)” as the substance, how does the clinch opening force [3] read?
Answer: 23 pN

Question: For “CsuA/B (wild type, co-expressed with the CsuC chaperone) (natural protein)”, which stoichiometry N [4] is on record?
Answer: 1 to 8

Question: What does the source list for FimC-FimH complex (from UniProt P31697)?
Answer: pKd [5]: 7.90; pKd [6]: 6.02
